Target: T1, NM23-wt containing the Strep-tag II (UniProt P15531 1-152, limits assumed)
T1 construct: Strep-tag II version used in the nanoparticle assay; also called wild type hexamers; not shown: Strep-tag II
Experiment: gold nanoparticle color change assay
Excerpt: A nanoparticle assay was used to characterize the binding of NM23 dimers versus hexamers. A MUC1*ecd peptide ([…]) (SEQ ID NO:44) was immobilized on NTA-SAM-coated gold colloids. NM23-wt, NM23S120G-dimer and NM23S120G-hexamer were expressed and purified with the Strep-tag II (FIG. 22c). The addition of NM23S120G-dimer induced a pink to blue solution color change, indicating a specific binding, which was then inhibited by the addition of an anti-MUC1* Fab.

T1 sequence (P15531 whole entry): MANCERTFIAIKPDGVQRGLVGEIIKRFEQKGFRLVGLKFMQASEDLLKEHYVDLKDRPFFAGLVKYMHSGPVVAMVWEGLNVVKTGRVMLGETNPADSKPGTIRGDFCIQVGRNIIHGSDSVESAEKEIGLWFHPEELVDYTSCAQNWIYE

B1: MUC1*ecd peptide (QFNQYKTEAASRYNLTISDVSVSDVPFPFSAQSGAHHHHHH) immobilized on NTA-SAM-coated gold colloids (peptide)
peptide: QFNQYKTEAASRYNLTISDVSVSDVPFPFSAQSGAHHHHHH
notes: also called MUC1*ecd peptide (PSMGFR-His tagged)
B1: no binding (tested: 64 nM).
